Measurements taken from patent US20200087400A1 (EUREKA THERAPEUTICS, published 2020).

B1: PSA146/HLA-A*02:01-specific scFv phage clone #15 (scFv, V domains shown)
VH: QVQLVQSGAEVKKPGSSVKVSCKASGGTFSSYAISWVRQAPGQGLEWMGRIIPILGIANYAQKFQGRVTITADKSTSTAYMELSSLRSEDTAVYYCARVSQPVYGSSTYDIWGQGTLVTVSS
VL: QAVLTQPPSASGTPGQRVTISCSGRSSNLGSNSVNWYQQVPGTAPKLLIFDNHQRPSGVPDRFSGSKSGTSASLAISGLRSEDETDYYCAAWDDSLNSVVFGGGTKLTVLG
B2: PSA146/HLA-A*02:01-specific scFv phage clone #18 (scFv, V domains shown)
VH: QVQLVQSGAEVKKPGESLKISCKGSGYSFTSYWIGWVRQMPGKGLEWMGIIYPGDSDTRYSPSFQGQVTISADKSISTAYLQWSSLKASDTAMYYCARWGSRGFLDAFDIWGQGTMVTVSS
VL: QSVVTQPPSVSAAPGQRVTISCSGSSSNIGNNYVSWYQQLPGAAPRLLIYDNDKRPSGIPDRFSGSKSGTSATLGITGLQTGDEADYYCGTWDSSLSSGVFGGGTKLTVLG
B3: PSA146/HLA-A*02:01-specific scFv phage clone #14 (scFv, V domains shown)
VH: EVQLVQSGAEVKKPGASVKVSCKASGYTFTGYFMHWVRQAPGQGLEWMGGFDPEDGETIYAQKFQGRVTMTEDTSTDTAYMELSSLRSEDTAVYYCARYSYDLWGQGTLVTVSS
VL: QTVVTQEPSLTVSPGGTVTLTCASSTGAVTSGYYPNWFQQKPGQAPRALIYSTSNKHSWTPARFSGSLLGGKAALTLSGVQPEDEAEYYCLLYYGGAQWVFGGGTKLTVLG

What follows are binders tested against T1, Bio-P19 member A2E-23 (chain 2 carries a C-terminal BirA substrate peptide (BSP), enzymatically biotinylated; the BSP letters are not given in the patent and are left out) (assay: phage ELISA, streptavidin plate, anti-M13-HRP).
T1 construct: also called biotinylated control peptide A2E-23/HLA-A*02:01 monomer
Summary of the method: (§1)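 Phage clones selected by panning against PSA146/HLA-A*02:01 are tested by ELISA in coated streptavidin plates, with HRP-labelled anti-M13 and substrate development read at 450 nm.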

| Binder | binding result |
| --- | --- |
| B1 | no binding |
| B2 | no binding |
| B3 | no binding |

Each binder was assayed against T2, Bio-P19 member A2E-3 (chain 2 carries a C-terminal BirA substrate peptide (BSP), enzymatically biotinylated; the BSP letters are not given in the patent and are left out) (assay: phage ELISA, streptavidin plate, anti-M13-HRP).
T2 construct: also called biotinylated control peptide A2E-3/HLA-A*02:01 monomer
Summary of the method: as §1

| Binder | binding result |
| --- | --- |
| B1 | no binding |
| B2 | no binding |
| B3 | no binding |

The binders below were run against T3, Bio-P19 member A2E-2 (chain 2 carries a C-terminal BirA substrate peptide (BSP), enzymatically biotinylated; the BSP letters are not given in the patent and are left out) (assay: phage ELISA, streptavidin plate, anti-M13-HRP).
T3 construct: also called biotinylated control peptide A2E-2/HLA-A*02:01 monomer
Summary of the method: as §1

| Binder | binding result |
| --- | --- |
| B1 | no binding |
| B2 | no binding |
| B3 | no binding |

The binders below were run against T4, PSA 146-154 peptide/HLA-A*02:01 complex on the cell surface (human) (assay: flow cytometry, phage on T2 cells, anti-M13 + R-PE anti-mouse IgG).
T4 construct: also called PSA146/HLA-A*02:01; PSA146-loaded T2 cells
Summary of the method: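 Absorbance at 450 nm after HRP anti-M13 detection gave phage ELISA binding of individual clones, taken from pools panned on PSA146/HLA-A*02:01, in coated plates. In FACS, phage-stained T2 cells were detected by mouse anti-M13 then R-PE horse anti-mouse IgG.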

| Binder | binding result |
| --- | --- |
| B1 | binds |
| B2 | binds |
| B3 | binds |

Each binder was assayed against T5, control peptide A2E-4/HLA-A*02:01 complex on T2 cells (member of the P19 mixture) (human) (assay: flow cytometry, phage on T2 cells).
T5 construct: Loaded on T2 cells as part of the mixture of 19 control peptides
Description: (§2) Individual phage clones from enriched phage display panning pools against PSA146/HLA-A*02:01 complex were incubated in the coated plates. Binding of the phage clones was detected by HRP-conjugated anti-M13 antibodies and developed using HRP substrate. The absorbance was read at 450 nm. […] Then, unique antibody clones were identified through DNA sequencing of ELISA-positive clones. […] T2 cells loaded with different peptides and β2M were first stained with purified scFv phage clones, followed by staining with a mouse anti-M13 mAb, and finally R-PE conjugated horse anti-mouse IgG from Vector Labs. Each step of the staining was performed for between 30-60 minutes on ice and the cells were washed twice between stainings. All 16 clones recognized PSA146-loaded T2 cells specifically. FIG. 3 provides examples of PSA146/HLA-A*02:01 specific phage clone binding to peptide-loaded T2 cells through FACS.

| Binder | binding result |
| --- | --- |
| B1 | no binding |
| B2 | no binding |
| B3 | no binding |

What follows are binders tested against T6, control peptide A2E-2/HLA-A*02:01 complex on T2 cells (member of the P19 mixture) (human) (assay: flow cytometry, phage on T2 cells).
T6 construct: Loaded on T2 cells as part of the mixture of 19 control peptides
Description: as §2

| Binder | binding result |
| --- | --- |
| B1 | no binding |
| B2 | no binding |
| B3 | no binding |

These binders were tested against T7, control peptide A2E-11/HLA-A*02:01 complex on T2 cells (member of the P19 mixture) (human) (assay: flow cytometry, phage on T2 cells).
T7 construct: Loaded on T2 cells as part of the mixture of 19 control peptides
Description: as §2

| Binder | binding result |
| --- | --- |
| B1 | no binding |
| B2 | no binding |
| B3 | no binding |

Each binder was assayed against T8, control peptide A2E-7/HLA-A*02:01 complex on T2 cells (member of the P19 mixture) (human) (assay: flow cytometry, phage on T2 cells).
T8 construct: Loaded on T2 cells as part of the mixture of 19 control peptides
Description: as §2

| Binder | binding result |
| --- | --- |
| B1 | no binding |
| B2 | no binding |
| B3 | no binding |

These binders were tested against T9, control peptide A2E-1/HLA-A*02:01 complex on T2 cells (member of the P19 mixture) (human) (assay: flow cytometry, phage on T2 cells).
T9 construct: Loaded on T2 cells as part of the mixture of 19 control peptides
Description: as §2

| Binder | binding result |
| --- | --- |
| B1 | no binding |
| B2 | no binding |
| B3 | no binding |

What follows are binders tested against T10, control peptide A2E-9/HLA-A*02:01 complex on T2 cells (member of the P19 mixture) (human) (assay: flow cytometry, phage on T2 cells).
T10 construct: Loaded on T2 cells as part of the mixture of 19 control peptides
Description: as §2

| Binder | binding result |
| --- | --- |
| B1 | no binding |
| B2 | no binding |
| B3 | no binding |

What follows are binders tested against T11, control peptide A2E-6/HLA-A*02:01 complex on T2 cells (member of the P19 mixture) (human) (assay: flow cytometry, phage on T2 cells).
T11 construct: Loaded on T2 cells as part of the mixture of 19 control peptides
Description: as §2

| Binder | binding result |
| --- | --- |
| B1 | no binding |
| B2 | no binding |
| B3 | no binding |

What follows are binders tested against T12, control peptide A2E-5/HLA-A*02:01 complex on T2 cells (member of the P19 mixture) (human) (assay: flow cytometry, phage on T2 cells).
T12 construct: Loaded on T2 cells as part of the mixture of 19 control peptides
Description: as §2

| Binder | binding result |
| --- | --- |
| B1 | no binding |
| B2 | no binding |
| B3 | no binding |

Each binder was assayed against T13, control peptide A2E-19/HLA-A*02:01 complex on T2 cells (member of the P19 mixture) (human) (assay: flow cytometry, phage on T2 cells).
T13 construct: Loaded on T2 cells as part of the mixture of 19 control peptides
Description: as §2

| Binder | binding result |
| --- | --- |
| B1 | no binding |
| B2 | no binding |
| B3 | no binding |

What follows are binders tested against T14, control peptide A2E-8/HLA-A*02:01 complex on T2 cells (member of the P19 mixture) (human) (assay: flow cytometry, phage on T2 cells).
T14 construct: Loaded on T2 cells as part of the mixture of 19 control peptides
Description: as §2

| Binder | binding result |
| --- | --- |
| B1 | no binding |
| B2 | no binding |
| B3 | no binding |

What follows are binders tested against T15, control peptide A2E-16/HLA-A*02:01 complex on T2 cells (member of the P19 mixture) (human) (assay: flow cytometry, phage on T2 cells).
T15 construct: Loaded on T2 cells as part of the mixture of 19 control peptides
Description: as §2

| Binder | binding result |
| --- | --- |
| B1 | no binding |
| B2 | no binding |
| B3 | no binding |

What follows are binders tested against T16, control peptide A2E-3/HLA-A*02:01 complex on T2 cells (member of the P19 mixture) (human) (assay: flow cytometry, phage on T2 cells).
T16 construct: Loaded on T2 cells as part of the mixture of 19 control peptides
Description: as §2

| Binder | binding result |
| --- | --- |
| B1 | no binding |
| B2 | no binding |
| B3 | no binding |

The binders below were run against T17, control peptide A2E-21/HLA-A*02:01 complex on T2 cells (member of the P19 mixture) (human) (assay: flow cytometry, phage on T2 cells).
T17 construct: Loaded on T2 cells as part of the mixture of 19 control peptides
Description: as §2

| Binder | binding result |
| --- | --- |
| B1 | no binding |
| B2 | no binding |
| B3 | no binding |

These binders were tested against T18, control peptide A2E-15/HLA-A*02:01 complex on T2 cells (member of the P19 mixture) (human) (assay: flow cytometry, phage on T2 cells).
T18 construct: Loaded on T2 cells as part of the mixture of 19 control peptides
Description: as §2

| Binder | binding result |
| --- | --- |
| B1 | no binding |
| B2 | no binding |
| B3 | no binding |

Each binder was assayed against T19, control peptide A2E-13/HLA-A*02:01 complex on T2 cells (member of the P19 mixture) (human) (assay: flow cytometry, phage on T2 cells).
T19 construct: Loaded on T2 cells as part of the mixture of 19 control peptides
Description: as §2

| Binder | binding result |
| --- | --- |
| B1 | no binding |
| B2 | no binding |
| B3 | no binding |

What follows are binders tested against T20, control peptide A2E-14/HLA-A*02:01 complex on T2 cells (member of the P19 mixture) (human) (assay: flow cytometry, phage on T2 cells).
T20 construct: Loaded on T2 cells as part of the mixture of 19 control peptides
Description: as §2

| Binder | binding result |
| --- | --- |
| B1 | no binding |
| B2 | no binding |
| B3 | no binding |

Each binder was assayed against T21, control peptide A2E-17/HLA-A*02:01 complex on T2 cells (member of the P19 mixture) (human) (assay: flow cytometry, phage on T2 cells).
T21 construct: Loaded on T2 cells as part of the mixture of 19 control peptides
Description: as §2

| Binder | binding result |
| --- | --- |
| B1 | no binding |
| B2 | no binding |
| B3 | no binding |

Each binder was assayed against T22, control peptide A2E-23/HLA-A*02:01 complex on T2 cells (member of the P19 mixture) (human) (assay: flow cytometry, phage on T2 cells).
T22 construct: Loaded on T2 cells as part of the mixture of 19 control peptides
Description: as §2

| Binder | binding result |
| --- | --- |
| B1 | no binding |
| B2 | no binding |
| B3 | no binding |

The binders below were run against T23, control peptide A2E-10/HLA-A*02:01 complex on T2 cells (member of the P19 mixture) (human) (assay: flow cytometry, phage on T2 cells).
T23 construct: Loaded on T2 cells as part of the mixture of 19 control peptides
Description: as §2

| Binder | binding result |
| --- | --- |
| B1 | no binding |
| B2 | no binding |
| B3 | no binding |
